Values of other authors as cited in PMC5668312.

Assays:
[1] = molecular target: Vps2 (Saccharomyces cerevisiae) (UniProt P36108)
CHMP1B (Homo sapiens) = CHMP1B (Homo sapiens) (UniProt Q7LBR1)
Sequence of CHMP1B (Homo sapiens) (Q7LBR1 whole entry): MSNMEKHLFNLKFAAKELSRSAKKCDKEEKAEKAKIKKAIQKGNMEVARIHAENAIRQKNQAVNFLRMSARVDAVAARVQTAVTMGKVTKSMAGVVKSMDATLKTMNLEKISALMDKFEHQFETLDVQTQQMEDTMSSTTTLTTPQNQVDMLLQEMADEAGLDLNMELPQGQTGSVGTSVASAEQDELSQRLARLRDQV

Sequence of Vps2 (Saccharomyces cerevisiae) (P36108 whole entry): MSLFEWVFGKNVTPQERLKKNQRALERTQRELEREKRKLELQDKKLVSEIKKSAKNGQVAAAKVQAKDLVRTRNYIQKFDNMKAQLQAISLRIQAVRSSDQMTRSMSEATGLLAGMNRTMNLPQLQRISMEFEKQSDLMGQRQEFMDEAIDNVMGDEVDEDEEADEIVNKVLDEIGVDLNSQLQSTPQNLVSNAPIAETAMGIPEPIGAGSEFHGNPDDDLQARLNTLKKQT
Sequence of Vps4 MIT (P52917 1-83): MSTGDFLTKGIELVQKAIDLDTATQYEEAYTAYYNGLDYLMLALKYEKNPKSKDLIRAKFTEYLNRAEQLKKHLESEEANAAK
Sequence of spastin MIT (Q9UBP0 117-198): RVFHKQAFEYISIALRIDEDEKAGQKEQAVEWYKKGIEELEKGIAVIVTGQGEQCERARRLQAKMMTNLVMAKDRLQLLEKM

Substance: Vps4 MIT (from UniProt P52917)
- Kd [1]: 30 µM

Substance: spastin MIT (from UniProt Q9UBP0)
- Kd (CHMP1B (Homo sapiens)): 12 µM
